Experiments:
[1] = biological target: full length human PSMA (human) (UniProt Q04609); test: FACS, 15 ug/ml on LNCaP cells, PE goat anti-mouse IgG (control of FIG. 13 study)
[2] = biological target: full length human PSMA (human) (UniProt Q04609); test: FACS, 15 ug/ml on LNCaP cells, PE goat anti-mouse IgG (control of FIG. 19 study)
[3] = biological target: full length human PSMA (human) (UniProt Q04609); test: FACS, 15 ug/ml on LNCaP cells, PE goat anti-mouse IgG (control of FIG. 24 study)
[4] = biological target: full length human PSMA (human) (UniProt Q04609); test: FACS, 15 ug/ml on LNCaP cells, PE goat anti-mouse IgG (control of FIG. 29 study)

Sequence of full length human PSMA (human) (Q04609 whole entry): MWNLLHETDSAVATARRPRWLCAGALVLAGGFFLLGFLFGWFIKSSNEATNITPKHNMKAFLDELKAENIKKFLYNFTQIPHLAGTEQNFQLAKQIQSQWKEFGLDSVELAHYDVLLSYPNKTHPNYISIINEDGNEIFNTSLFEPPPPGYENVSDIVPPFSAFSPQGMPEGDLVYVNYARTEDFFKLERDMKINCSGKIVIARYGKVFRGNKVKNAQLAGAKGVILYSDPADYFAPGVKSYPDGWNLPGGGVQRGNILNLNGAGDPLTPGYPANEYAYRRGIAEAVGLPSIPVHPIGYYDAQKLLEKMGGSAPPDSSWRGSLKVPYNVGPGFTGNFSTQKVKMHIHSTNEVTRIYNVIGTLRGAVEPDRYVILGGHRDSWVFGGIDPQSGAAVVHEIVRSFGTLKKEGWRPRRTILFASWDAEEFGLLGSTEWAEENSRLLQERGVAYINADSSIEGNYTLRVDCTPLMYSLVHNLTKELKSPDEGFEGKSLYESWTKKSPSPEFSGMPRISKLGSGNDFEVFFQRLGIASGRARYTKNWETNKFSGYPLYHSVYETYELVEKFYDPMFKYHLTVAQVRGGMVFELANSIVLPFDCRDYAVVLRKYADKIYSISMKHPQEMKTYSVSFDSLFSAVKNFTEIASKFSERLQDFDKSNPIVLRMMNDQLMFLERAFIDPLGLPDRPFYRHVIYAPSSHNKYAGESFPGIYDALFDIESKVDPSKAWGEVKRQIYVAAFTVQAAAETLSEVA

fold-change in MFI over secondary antibody alone [1]: 45.3 fold
fold change in MFI over secondary antibody alone [2]: 45.3 fold
fold change in MFI over secondary antibody alone [3]: 45.3 fold
fold change in MFI over secondary antibody alone [4]: 14.3 fold
Substance: mouse anti-human PSMA monoclonal antibody, clone J591-A

— patent US20130295110A1
